Results from PMC5641545, “Structure and Interactions of the TPR Domain of Sgt2 with Yeast Chaperones and Ybr137wp” (Frontiers in Molecular Biosciences, 2017).

Experiments:
[1] = test system: TPR domains; details: ref Scheufler et al., 2000; cited from earlier work
Source text: The orientation of Hsp peptides in TPR structures varies between proteins. The conserved clamp mode of interactions is consistent, but there are some differences observed for the N-terminal parts of the peptides, which is not surprising given that the carboxylate clamp is the fixed point of attachment. The PTVEEVD peptide adopts an extended conformation within the Sgt2_TPR groove similar to that observed in the structure of the HOP TPR1/GPTIEEVD complex (Scheufler et al., [2000]). In contrast, structures of GPTIEEVD/Chip TPR [PDB: 3Q49 (Wang L. et al., [2011]) and PDB: 4KBQ Zhang et al., [2005 ...

[2] = biological target: T1, Sgt2_TPR (residues 93–229) (Saccharomyces cerevisiae, UniProt Q12118); test: ITC binding of peptides to Sgt2_TPR (93–229); set-up: species or system S. cerevisiae; details: 25°C, pH 6.0, from ΔG = −RT·lnKb and ΔG = ΔH − TΔS
T1 construct: were added to Sgt2_TPR (residues 93–229) at 50 μM in the reaction cell; thioredoxin A (N, cleaved yes); hexahistidine tag (N, cleaved yes); made in house; host or cells: E. coli BL21 (DE3)
T1 sequence (Q12118 93-229): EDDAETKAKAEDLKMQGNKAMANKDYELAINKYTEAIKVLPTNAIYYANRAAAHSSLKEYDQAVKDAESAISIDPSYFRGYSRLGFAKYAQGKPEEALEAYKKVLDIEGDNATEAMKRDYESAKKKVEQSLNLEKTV

[3] = biological target: Ybr137wp (Saccharomyces cerevisiae) (UniProt P38276); test: ITC; details: cited from earlier work
[4] = biological target: T2, Sgt2_TPR (93–229) (S. cerevisiae, UniProt Q12118 93-229); test: ITC; 20 injections of 2 uL of 500 uM peptide into 50 uM Sgt2_TPR (93-229) in the cell; 10 mM potassium phosphate pH 6.0, 100 mM NaCl, 250 uM TCEP, 25°C; details: both partners purified
T2 construct: Small glutamine-rich tetratricopeptide repeat-containing protein 2 (Sgt2), S. cerevisiae, TPR domain, residues 93-229; 15N-labelled for the NMR titrations; Cloned from synthetic cDNA into the BamHI/XhoI sites of a modified pET28; also called TPR domain of Sgt2; longer construct of Sgt2_TPR; not shown: thioredoxin A, N-terminal, cleaved; His6, N-terminal, cleaved
T2 sequence (looked up): T1 sequence (Q12118 93-229)

Ybr137wp (Saccharomyces cerevisiae), sequence (P38276 whole entry): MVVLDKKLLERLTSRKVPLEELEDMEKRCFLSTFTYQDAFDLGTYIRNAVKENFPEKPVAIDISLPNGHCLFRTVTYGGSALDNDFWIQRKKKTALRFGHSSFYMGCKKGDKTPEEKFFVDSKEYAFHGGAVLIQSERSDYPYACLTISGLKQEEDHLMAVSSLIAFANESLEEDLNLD

Q: Which “Fold reduction of affinity on trimming the peptide sequence to EEVD only” value [1] does the source give for EEVD here?
A: at least 10 times

Q: For “MEEVD [peptide corresponding to C-terminal of Hsp82; residues 705–709]”, which “ΔS (reaction entropy) by ITC” value [2] is on record?
A: 10.9 cal/mol·deg

Q: With Sgt2 TPR (from UniProt Q12118) as the molecule, how does the Kd [3] read?
A: 1.38 µM

B1: PTVEEVD peptide (C-terminus of Ssa1) (peptide)
peptide: PTVEEVD
notes: Heat shock protein Ssa1 (yeast Hsp70), last seven amino acids; printed as residues 634-640; also called C-terminal peptide of Ssa1; Ssa1 derived PTVEEVD peptide; source: synthetic peptide, bought: Alpha BioScience (Birmingham, UK)
Q: With B1 as the molecule, how does the Kd [4] read?
A: 9.04 ± 0.05 µM

Q: What about the dH [4] of the same molecule?
A: -6.72 ± 0.07 kcal/mol

B2: MEEVD peptide (C-terminus of Hsp82) (peptide)
peptide: MEEVD
notes: Hsp82 (yeast Hsp90), C-terminal residues 705-709; the abstract and discussion call the parent Hsc82; also called C-terminal fragment of Hsp82; Hsc82 C-terminal peptide; source: synthetic peptide, bought: Alpha BioScience (Birmingham, UK)
Q: Which results are given for B2?
A: Kd [4]: 2.95 ± 0.31 µM; dH [4]: -4.51 ± 0.03 kcal/mol

B3: SLEEDLNLD peptide (C-terminus of Ybr137wp) (peptide)
peptide: SLEEDLNLD
notes: Ybr137wp, yeast, C-terminal residues 171-179; also called Ybr137wp-derived peptide; source: synthetic peptide, bought: Alpha BioScience (Birmingham, UK)
Q: Which Kd [4] does the source give for B3 here?
A: 1.53 ± 0.05 µM

Q: What about the dH [4] of the same molecule?
A: -7.07 ± 0.99 kcal/mol
